Measured values as given in patent US6953661 (WESTMEAD HOSPITAL, dated 2005).

Target: T1, His-KHCstalk (human uKHC amino acid residues 555-772, tagged at the N-terminus with an oligohistidine … (human, UniProt P33176 555-772))
T1 construct: range 555-772; also the antigen used to raise the chicken anti-uKHC; also called HisKHC555-772; His-KHC fragment; not shown: N-terminal oligohistidine (His) tag
T1 sequence (looked up): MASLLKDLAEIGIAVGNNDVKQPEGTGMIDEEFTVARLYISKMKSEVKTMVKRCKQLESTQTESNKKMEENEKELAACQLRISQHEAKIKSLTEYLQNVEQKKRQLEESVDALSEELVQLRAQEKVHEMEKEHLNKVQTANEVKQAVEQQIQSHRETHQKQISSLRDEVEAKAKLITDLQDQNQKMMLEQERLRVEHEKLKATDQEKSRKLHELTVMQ
Experiment: pull-down on nickel-activated beads, immunoblot

B1: untagged US11 (recombinant HSV1 US11 with five additional amino acids MGRLE at the N-terminus, expressed in Escherichia coli) (other)
chain: MGRLEMSQTQPPAPVGPGDPDVYLKGVPSAGMHPRGVHAPRGHPRMISGPPQRGDNDQAAGQCGDSGLLRVGADTTISKPSEAVRPPTIPRTPRVPREPRVPRPPREPREPRVPRAPRDPRVPRDPRDPRQPRSPREPRSPREPRSPREPRTPRTPREPRTARGSV
notes: also called untagged US11 construct
**Q.** Does B1 bind?
**A.** Result: no binding
